Consider four variants from IntAct's records for PubMed 11854298.

B1: Peroxisome proliferator-activated receptor gamma coactivator 1-beta (Homo sapiens), Q86YN6 (parent)
chain: MAGNDCGALLDEELSSFFLNYLADTQGGGSGEEQLYADFPELDLSQLDASDFDSATCFGELQWCPENSETEPNQYSPDDSELFQIDSENEALLAELTKTLDDIPEDDVGLAAFPALDGGDALSCTSASPAPSSAPPSPAPEKPSAPAPEVDELSLLQKLLLATSYPTSSSDTQKEGTAWRQAGLRSKSQRPCVKADSTQDKKAPMMQSQSRSCTELHKHLTSAQCCLQDRGLQPPCLQSPRLPAKEDKEPGEDCPSPQPAPASPRDSLALGRADPGAPVSQEDMQAMVQLIRYMHTYCLPQRKLPPQTPEPLPKACSNPSQQVRSRPWSRHHSKASWAEFSILRELLAQDVLCDVSKPYRLATPVYASLTPRSRPRPPKDSQASPGRPSSVEEVRIAASPKSTGPRPSLRPLRLEVKREVRRPARLQQQEEEDEEEEEEEEEEEKEEEEEWGRKRPGRGLPWTKLGRKLESSVCPVRRSRRLNPELGPWLTFADEPLVPSEPQGALPSLCLAPKAYDVERELGSPTDEDSGQDQQLLRGPQIPALESPCESGCGDMDEDPSCPQLPPRDSPRCLMLALSQSDPTFGKKSFEQTLTVELCGTAGLTPPTTPPYKPTEEDPFKPDIKHSLGKEIALSLPSPEGLSLKATPGAAHKLPKKHPERSELLSHLRHATAQPASQAGQKRPFSCSFGDHDYCQVLRPEGVLQRKVLRSWEPSGVHLEDWPQQGAPWAEAQAPGREEDRSCDAGAPPKDSTLLRDHEIRASLTKHFGLLETALEEEDLASCKSPEYDTVFEDSSSSSGESSFLPEEEEEEGEEEEEDDEEEDSGVSPTCSDHCPYQSPPSKANRQLCSRSRSSSGSSPCHSWSPATRRNFRCESRGPCSDRTPSIRHARKRREKAIGEGRVVYIQNLSSDMSSRELKRRFEVFGEIEECEVLTRNRRGEKYGFITYRCSEHAALSLTKGAALRKRNEPSFQLSYGGLRHFCWPRYTDYDSNSEEALPASGKSKYEAMDFDSLLKEAQQSLH
B2: Estrogen receptor (Homo sapiens), P03372 (parent)
chain: MTMTLHTKASGMALLHQIQGNELEPLNRPQLKIPLERPLGEVYLDSSKPAVYNYPEGAAYEFNAAAAANAQVYGQTGLPYGPGSEAAAFGSNGLGGFPPLNSVSPSPLMLLHPPPQLSPFLQPHGQQVPYYLENEPSGYTVREAGPPAFYRPNSDNRRQGGRERLASTNDKGSMAMESAKETRYCAVCNDYASGYHYGVWSCEGCKAFFKRSIQGHNDYMCPATNQCTIDKNRRKSCQACRLRKCYEVGMMKGGIRKDRRGGRMLKHKRQRDDGEGRGEVGSAGDMRAANLWPSPLMIKRSKKNSLALSLTADQMVSALLDAEPPILYSEYDPTRPFSEASMMGLLTNLADRELVHMINWAKRVPGFVDLTLHDQVHLLECAWLEILMIGLVWRSMEHPGKLLFAPNLLLDRNQGKCVEGMVEIFDMLLATSSRFRMMNLQGEEFVCLKSIILLNSGVYTFLSSTLKSLEEKDHIHRVLDKITDTLIHLMAKAGLTLQQQHQRLAQLLLILSHIRHMSNKGMEHLYSMKCKNVVPLYDLLLEMLDAHRLHAPTSRGGASVEETDQSHLATAGSTSSHSLQKYYITGEAEGFPATV
partner: B1 chain

In the first experiment the parent is B1. The settings on record: with esr1_human ESR1, P03372.
Consider L155A;L156A;L159A;L160A, for which the “effect of a mutation on the interaction” value is “decreasing interaction strength”.

On to L343A;L346A;L347A, for which the “effect of a mutation on the interaction” value is recorded as “decreasing interaction strength”.

As for L155A;L156A;L159A;L160A;L343A;L346A;L347A, the “effect of a mutation on the interaction” value is given as “disrupting interaction strength”.

In a further experiment the parent is B2. Conditions: with prgc2_human PPARGC1B.
As for L539A;L540A, the “effect of a mutation on the interaction” value is reported as “disrupting interaction strength”.
